# In IntAct's records for PubMed 26635368:
# Target: spre1_human SPRED1 (UniProt Q7Z699)
# Sequence (Q7Z699 whole entry): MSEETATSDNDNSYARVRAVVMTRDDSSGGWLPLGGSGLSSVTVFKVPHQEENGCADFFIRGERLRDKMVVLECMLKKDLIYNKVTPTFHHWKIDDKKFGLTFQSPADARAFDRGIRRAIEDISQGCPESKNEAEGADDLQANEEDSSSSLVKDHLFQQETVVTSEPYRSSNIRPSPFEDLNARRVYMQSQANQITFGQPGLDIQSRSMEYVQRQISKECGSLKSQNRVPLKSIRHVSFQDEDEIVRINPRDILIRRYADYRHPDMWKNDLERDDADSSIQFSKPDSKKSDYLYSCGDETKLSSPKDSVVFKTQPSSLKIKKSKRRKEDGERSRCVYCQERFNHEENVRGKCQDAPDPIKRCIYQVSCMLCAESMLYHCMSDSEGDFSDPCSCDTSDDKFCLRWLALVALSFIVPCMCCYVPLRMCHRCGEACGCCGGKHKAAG
row,effect of a mutation on the interaction,Substance
1,decreasing interaction strength,"Neurofibromin (Homo sapiens), P21359 D1217G"
2,with no effect,"Neurofibromin (Homo sapiens), P21359 R1276P"
3,decreasing interaction strength,"Neurofibromin (Homo sapiens), P21359 L1511P"

# Target: spre1_human SPRED1 (UniProt Q7Z699)
# Remark: another data set of the same source
row,Substance,effect of a mutation on the interaction
1,"Neurofibromin (Homo sapiens), P21359 L1211R",with no effect
2,"Neurofibromin (Homo sapiens), P21359 R1204L",decreasing interaction strength
3,"Neurofibromin (Homo sapiens), P21359 D1217G",disrupting interaction strength
4,"Neurofibromin (Homo sapiens), P21359 R1204G",with no effect
5,"Neurofibromin (Homo sapiens), P21359 Q1515R",with no effect
6,"Neurofibromin (Homo sapiens), P21359 R1204W",decreasing interaction strength
7,"Neurofibromin (Homo sapiens), P21359 L1208W",decreasing interaction strength

# Now from value to substance:
row,effect of a mutation on the interaction,Substance
1,with no effect,"Neurofibromin (Homo sapiens), P21359 A1202S"
2,with no effect,"Neurofibromin (Homo sapiens), P21359 G1519E"
